Test results taken from publication PMC12720113, “The binding mechanism of a novel ferrous ion chelating peptide from chicken blood hemoglobin and the bioavailability of the chelate” (Food Chemistry: X, 2025).

System: Caco-2 cells
Experiment: Caco-2 cell viability assay (MTT)
Format: cell-based
Conditions: 24 h, 490 nm, means ± SEM
Procedure: Caco-2 cell viability assay was conducted on […]-Fe according to the method of [Wu et al. (2019)]. And lactoferrin was chosen as an experimental control. When the cell fusion rate was close to 80 %, the cells were dissociated and passaged using the trypsin-EDTA mixed digest. Cultivate the 23rd generation of cells in the logarithmic growth phase at 37 °C and 5 % CO₂ for 24 h. Then, a gradient concentration of […]-Fe and Ac-[…]-Fe was added to the wells of the experimental group, and all the samples were incubated for 24 h. After incubation, 20 μL of MTT reagent was added to each well. After 2 h of reaction, 150 μL of DMSO was added and agitated for 10 min. The absorbance values at 490 nm were measured to reflect cell activity levels. Cell relative activity (%) was calculated:(3) Relative cell viability%=As−Ab/Ac−Ab×100 where: As represents the absorbance value of the sample treatment, Ab represents the absorbance value without cells, and Ac represents the absorbance value without sample treatment.

B1: lactoferrin (protein, UniProt P24627 20-708, looked up)
Lactotransferrin: APRKNVRWCTISQPEWFKCRRWQWRMKKLGAPSITCVRRAFALECIRAIAEKKADAVTLDGGMVFEAGRDPYKLRPVAAEIYGTKESPQTHYYAVAVVKKGSNFQLDQLQGRKSCHTGLGRSAGWIIPMGILRPYLSWTESLEPLQGAVAKFFSASCVPCIDRQAYPNLCQLCKGEGENQCACSSREPYFGYSGAFKCLQDGAGDVAFVKETTVFENLPEKADRDQYELLCLNNSRAPVDAFKECHLAQVPSHAVVARSVDGKEDLIWKLLSKAQEKFGKNKSRSFQLFGSPPGQRDLLFKDSALGFLRIPSKVDSALYLGSRYLTTLKNLRETAEEVKARYTRVVWCAVGPEEQKKCQQWSQQSGQNVTCATASTTDDCIVLVLKGEADALNLDGGYIYTAGKCGLVPVLAENRKSSKHSSLDCVLRPTEGYLAVAVVKKANEGLTWNSLKDKKSCHTAVDRTAGWNIPMGLIVNQTGSCAFDEFFSQSCAPGADPKSRLCALCAGDDQGLDKCVPNSKEKYYGYTGAFRCLAEDVGDVAFVKNDTVWENTNGESTADWAKNLNREDFRLLCLDGTRKPVTEAQSCHLAVAPNHAVVSRSDRAAHVKQVLLHQQALFGKNGKNCPDKFCLFKSETKNLLFNDNTECLAKLGGRPTYEEYLGTEYVTAIANLKKCSTSPLLEACAFLTR
notes: conventional iron supplement, experimental control
B1 was tested, and the “Relative vitality of cells (%)” value (Caco-2, 0.125 mg/mL) was 92.86 ± 1.03%, the “Relative vitality of cells (%)” value (Caco-2, 0.25 mg/mL) was 81.43 ± 0.94% and the “Relative vitality of cells (%)” value (Caco-2, 0.5 mg/mL) was 77.76 ± 1.27%. The “Relative vitality of cells (%)” value (Caco-2, 1 mg/mL) was 74.83 ± 0.84% and the “Relative vitality of cells (%)” value (Caco-2, 2 mg/mL) was 66.90 ± 1.42%.
